We go through four molecules from patent EP2243792A1 (Spiber Technologies AB, dated 2010).

For data set [1], the target named is NT, N-terminal domain of major ampullate spidroin (MaSp) 1 from Euprosthenops australis (Euprosthenops australis). Nature of the data set: self-association; DLS, 10 mM phosphate buffer, pH 7.2.
The target is the same in data set [2]. Nature of the data set: self-association; DLS, 100 mM phosphate buffer, pH 6.2.
The target is the same in data set [3]. The experiment in a line: self-association; DLS, 10 mM phosphate buffer + 300 mM NaCl, pH 7.2.
Data set [4] has the same target. The experiment in a line: self-association; DLS, 10 mM phosphate buffer + 300 mM NaCl, pH 6.2.
Data set [5] has the same target. The experiment in a line: self-association; DLS, 10 mM phosphate buffer + 150 mM NaCl, pH 7.2.
For data set [6] the target is unchanged. The experiment in a line: self-association; DLS, 10 mM phosphate buffer, pH 6.0.
Data set [7] shares this target. Nature of the data set: self-association; DLS, 10 mM phosphate buffer + 150 mM NaCl, pH 6.1.
Data set [8] shares this target. The experiment in a line: self-association; DLS, 100 mM phosphate buffer, pH 7.2.
Data set [9] deals with the molecule itself. Nature of the data set: self-association; polymerisation at pH 6, macroscopic formations and SEM.
Data set [10] deals with the molecule itself. Nature of the data set: self-association; turbidimetry at different pH values.

B1: NT, N-terminal domain of major ampullate spidroin (MaSp) 1 from Euprosthenops australis (protein)
chain: GSGNSHTTPWTNPGLAENFMNSFMQGLSSMPGFTASQLDDMSTIAQSMVQSIQSLAAQGRTSPNKLQALNMAFASSMAEIAASEEGGGSLSTKTSSIASAMSNAFLQTTGVVNQPFINEITQLVSMFAQAGMNDVSA
B1: the % particles in data set [1] worked out at 99.8%; in data set [2], 99.9%; in [3] it was 99.9%; in [4] it was 99.9%; in [5], 99.9%; in [6], 100%. Besides, the % particles in data set [7] was found to be 96.8%; in data set [8] it was 99.9%. The Size (nm) in data set [1] was found to be 4.5 nm; in data set [2] it was 4.2 nm; in data set [3], 4.3 nm; in [4], 4.4 nm; in data set [5], 4.1 nm; in data set [6], 687 nm. For the same molecule, the Size (nm) in data set [7] came out at 710 nm; in [8], 4.2 nm.

B2: NT4RepCT (other)
chain: MKASHTTPWTNPGLAENFMNSFMQGLSSMPGFTASQLDDMSTIAQSMVQSIQSLAAQGRTSPNKLQALNMAFASSMAEIAASEEGGGSLSTKTSSIASAMSNAFLQTTGVVNQPFINEITQLVSMFAQAGMNDVSASASAGASAAASAGAASGQGGYGGLGQGGYGQGAGSSAAAAAAAAAAAAGGQGGQGQGGYGQGSGGSAAAAAAAAAAAAAAAGRGQGGYGQGSGGNAAAAAAAAAAAAAAAGQGGQGGYGRQSQGAGSAAAAAAAAAAAAAAGSGQGGYGGQGQGGYGQSSASASAAASAASTVANSVSRLSSPSAVSRVSSAVSSLVSNGQVNMAALPNIISNISSSVSASAPGASGCEVIVQALLEVITALVQIVSSSSVGYINPSAVNQITNVVANAMAQVMGKLAAALEHHHHHH
notes: Non-natural minispidroin: NT, repetitive fragment and C-terminal domain; Made as an N-terminal fusion to His6; also called NT4RepCTHis; minispidroin NT4RepCT
Consider B2, for which the binding result in data set [9] is listed as “binds”.

B3: NT4Rep (other)
chain: GSGNSHTTPWTNPGLAENFMNSFMQGLSSMPGFTASQLDDMSTIAQSMVQSIQSLAAQGRTSPNKLQALNMAFASSMAEIAASEEGGGSLSTKTSSIASAMSNAFLQTTGVVNQPFINEITQLVSMFAQAGMNDVSASASAGASAAASAGAASGQGGYGGLGQGGYGQGAGSSAAAAAAAAAAAAGGQGGQGQGGYGQGSGGSAAAAAAAAAAAAAAAGRGQGGYGQGSGGNAAAAAAAAAAAAAAAGQGGQGGYGRQSQGAGSAAAAAAAAAAAAAAGSGQGGYGGQGQGGYGQS
notes: Non-natural minispidroin: NT domain plus a repetitive fragment derived from E. australis MaSp1; Made as a C-terminal fusion to His6TrxHis6, tag removed; also called minispidroin NT4Rep
As for B3, in data set [9], the binding result is “binds”.

B4: NT5Rep (other)
chain: GSGNSHTTPWTNPGLAENFMNSFMQGLSSMPGFTASQLDDMSTIAQSMVQSIQSLAAQGRTSPNKLQALNMAFASSMAEIAASEEGGGSLSTKTSSIASAMSNAFLQTTGVVNQPFINEITQLVSMFAQAGMNDVSASASAGASAAASAGAPGYSPAPSYSSGGYASSAASAAAAAGQGGPGGYGPAPNQGASSAAAAAAGSGQGPSGPYGTSYQISTQYTQTTTSQGQGYGSSSAGAAAAGAAGAGQGGYGGQGQGGYGQGAGGAAAAAAAAAAAAAAAGQGGQGGGGYGQGGQGGQGGQGQGGYGQGAGSSAAAAAAAAAAAAAAGRGQGGYGPGSGG
notes: Non-natural minispidroin; Made as a C-terminal fusion to His6TrxHis6, tag removed
As for B4, the binding result in data set [10] was “binds”.
